Measurements: the DeepSol protein solubility set

Assay: soluble on expression in E. coli; label from the status in PepcDB or PDB records

Question: With “MGSDKIHHHHHHMPATAYSAIHGRDIRTLKQCPPVVDAMTYGFMVLLPCDVVVDKGTFSWDWQIPEPVTQNHPRAPLSFHTPGQLAGSPFATTGQAALKFNSFWTIEVEDGWSLFATHPVNREDLPFRLVTGLVDSDRFSDGGINFPAVWTEAGFSGVLAKGTPVAQCFAVPRAAPQLEYEVFDEERQASYARTVADVLSTPGVYRKRFRARRGRSTGE” as the sequence, how does the “soluble on expression in E. coli” value read?
Answer: not soluble

Question: For “MGGSHHHHHHGMASGSPPTQPSPASDSGSGYVPGSVSAAFVTCPNEKVAKEIARAVVEKRLAACVNLIPQITSIYEWKGKIEEDSEVLMMIKTQSSLVPALTDFVRSVHPYEVAEVIALPVEQGNFPYLQWVRQVTESVSDSITVLP”, which “soluble on expression in E. coli” value is on record?
Answer: soluble

Question: For “MLTEQEKDIIKQTVPLLKEKGTEITSIFYPKMFKAHPELLNMFNQTNQKRGMQSSALAQAVMAAAVNIDNLSVIKPVIMPVAYKHCALQVYAEHYPIVGKNLLKAIQDVTGLEENDPVIQAWAKAYGVIADVFIQIEKEIYDQMMWIGFKPFKITNIKQESEDIKSFTVETEEYDFSEFTPGQYITVDVSSDKLPYRAKRHYSIVSGEKNHLTFGVKRDVTTEHEGEVSTILHDEIKEGDMINLAAPVGGFVLENTTEPQLFLGSGIGVTPLVAMYEAASAKGLDTQMVQVAENEQHLPFKDNFNSIASHHDNAKLYTHLKDKQGYIGAEELQVFLANKPEIYICGGTKFLQSMIEALKSLNYDMDRVHYETFIPRLSVAV”, which “soluble on expression in E. coli” value is on record?
Answer: not soluble

Question: With “MEIRVKCRCGEEECSEWAIVELQGVVETQASFQGSIQNLEIGRLCHSDSSQGTYTFTVGYHELVGSKVTLKKPLLVLKKLQFDEVSGKATELEVVGIIRTKILFKTRPKPLISGNNNLSLFCS” as the sequence, how does the “soluble on expression in E. coli” value read?
Answer: not soluble

Question: For “MGSDKIHHHHHHMPRHVSNLELHNQIQEAALQSHLVPLGSIQLTPHFIPVEGLRRSIQRALKNCQPQDFLYCNKQGHEQLRKALSDHWREDGIYIAPEDIFITNGCMPALSLVIQKLTEVGDSILIPTPTYNGHLQLLASLKRQIVEIPADHRGIDLERLESLMQQGLAKVCLMTANYQNPLGYCFSNAEKQKIAELAAEYQCFIIEDDIFGECGYSSERPLPIRYWDREGYVVWCGSVSKSLSSAYRVGWFCLTTKLEHLKLELLVSNIGVNTPLQLGLADFIYSRGYREHLEQLRPNLMRQVEEYRSCILRAFEGIPIALSQPEGGYALWIQLPKSVDSLALYYTAQAQGITVVPGYVFGEDERYRHFIRLNAGHELTADVRQAIMSLADWSRQQMQTVS”, which “soluble on expression in E. coli” value is on record?
Answer: not soluble

Question: With “MLASLHIANYVLIDRLDIDFAPHFSVITGETGAGKSILLGALGLLVGGRADTSAIAPGTDRCIVEGRFTGFVPEMKAVLDRYDLDFDPDECTIRREISSKGKSRAFVNDTPAPLTALRELADFLIDIHSQHKNLLLGDSLFQLNVLDAYSGKPDLYAHYSKAYRVYAERKQKLEDLRKAAAATASEYDYWQFRFEQLDKAGLESGEEARLQEEQAMLTHALDIKRELGHSYSLLSDDERGLLSGLNKVEDALATIESYYPDSASFRQRVRDVRIELADIASDLGRRSDDVSYEPERLNAVTDRLDEILSLLHRYNADSSDALIAIRDDLAERLSRISTDEEEISRLEQEVLAFYKEIEAQASLLTEERIRAASALETSLCESLRKLNMPHVRFVVDIRSTEYGPHGADKVVFLFSANKQMEPEPVSEIASGGEIARLMLCLKALIADKRSLPAIVFDEIDTGVSGEVADRMGEIMAHMGQGMQVLAITHLPQIAARGERHYFVYKDETGERARTFIRELTPEERIREIARMQSGNNLTDVALAAAKELLAR” as the sequence, how does the “soluble on expression in E. coli” value read?
Answer: not soluble

Question: For “MAHHHHHHMKCELASLIKENAQLGREMRGTPQLRVPQETDVAWRLRRDVLLHSEYPHVAACPEKDVERKDGRAVVVFQESKLQGEPPERTAAQKRSRSDHTAVVSVDPSVLKARASSLGERIVGAAGPSFEPYTAPPSWKMAKVLVGHRGWVWGAAVDPSNSWFATGGGDGVVKVWDLTTGALKLNLTGHKEGVRALSLSTLSPYMFTGSDDHSVKCWDLERNEIIRDFHGHKGSVHCVSTHPSLDIVLSGGRDKTVRVWDVRTRSCVHLLLGHSDSVMSLAVQQEDPQAISGGSDGMVYLWDIASGRAFTRLTRHKKPVRGLALSRQRVLVSCGADNIRVWSLPTGEFLFNASTLDNGKETKKEKEQEPQRWSCCSVSPRNVLAVGSQEGRLLFFDWSHPQQGPYQATKTRSVPGTLPGEGGINGLAFDASGSRLITAESDKSAKVWRTKE”, which “soluble on expression in E. coli” value is on record?
Answer: not soluble

Question: Which “soluble on expression in E. coli” value does the source give for “MSLIKDIRTYKLCYEGINDERDALAIKGLAEHPMEIVATEIETSDGYVGYGESLAYGCSDAVQVTIEKILKPLLLKEDEELIEYLWDKMYKATLRFGRRGIAIAGISGVDTALWDIMGKKAKKPIYKLLGGSKRKVRAYITGGYYSEKKDLEKLRDEEAYYVKMGFKGIKVKIGAKSMEEDIERLKAIREVVGEDVKIAVDANNVYTFEEALEMGRRLEKLGIWFFEEPIQTDYLDLSARLAEELEVPIAGYETAYTRWEFYEIMRKRAVDIVQTDVMWTGGISEMMKIGNMAKVMGYPLIPHYSAGGISLIGNLHVAAALNSPWIEMHLRKNDLRDKIFKESIEIDNGHLVVPDRPGLGYTIRDGVFEEYKCKSEGHHHHHH” here?
Answer: soluble

Question: For “MGSDKIHHHHHHMPNIDTFVPEKIQIGISSCLLGNQVRFDGGHKNSYYCRQEIEPFFEYTTVCPEMAIGMGTPRKSIRQIRDGDVVHIRSADGTLDVTDKLNEYSQAKVEELDYLGGYILCAKSPTCGMERVTEYKIGTNNGSKTGVGVFAKKLMERYPLLPVEEEGRLHDLPLRENFFTRVFAYNDWKQMTQSGLTKHKLMQFHSRYKYLLMAHSPKWYRDLGPILADIQDVEQTAQQYFEGFMTALKIIATRKNHTSTLQHIQGYFKKQLTAEQKEELSESILKYRQGLLPLLVPITLINHYVREFHTPYIQDQVYLNPHPEALKLRYAY”, which “soluble on expression in E. coli” value is on record?
Answer: not soluble

Question: Which “soluble on expression in E. coli” value does the source give for “MPRVSASPRTPPPPVMDLRMSEDSAFPIDFSALTRAQLENITRVCHGSAGSVFQQAGLFTSAGLPIVNNVRLKLAQRDADAFTTFEELINLFEDFYGRLALIEDTQNNLLLSALSAGDEPGETLQ” here?
Answer: not soluble

Question: With “MAHHHHHHMLRVIVRRLAWRPAAIQHLPDLGSKDAPKKTEDTQRQYRPLSLRARQALAEKSDEVQYHVITQDWFGQRVDTFLTQHHPEWSYETMKTLVQQGHIYRYRKNGKKRFTRITDRLEFDELLVVPTPVFYERQLAPPTGVLQESKKPTHFKLSSQVREMAHNMVLFKNEHVIVINKPHGVPMMPTSDPQEMNIAAMLSAWKYTNSTKPIVCHNLDKETSGCVVLARSKNAHRMLARMFVKRVVPNSVYWGFCVGKPSVNFGRIRMHFEMTRGTKGDIIVARPSPTKTSKVGIAEFVVNASALEFGSFISFYPLTTRRHQERIMAAHALRSPLLGDAKYGGESAFPSSMSLFWDPEDKGLPLHLHHRKIQLPYKNSTGEFVCVTAPLPIHMEKTFKKLGWPCDVDDPLIPG” as the sequence, how does the “soluble on expression in E. coli” value read?
Answer: not soluble

Question: Which “soluble on expression in E. coli” value does the source give for “GAMGDPGLVSAYGAGLEGGVTGNPAEFVVNTSNAGAGALSVTIDGPSKVKMDCQECPEGYRVTYTPMAPGSYLISIKYGGPYHIGGSPFKAKVTGPRLV” here?
Answer: soluble

Question: With “MTMQFKIPTVLRSQEIIDKSFSRASKIEEPYFPDKVERIKKEVQDRISAIESISCSHLDKLVKRFPSIERMHPFYRSLIDLMFDVDQYKIALSKVDATSANIKRISTEYIRKLRPVKDVGNANQIMRAYYGRFASLIEDLNETLLFLGRCRDYIRKLPEVRTDLKTYIIAGMPNVGKSSLLASLTTAKPKIASYPFTTKNVIIGYNESGSERIQFIDTPGILDRDFSEMNEIEKNAILAIRFIEGKIIFLFDYSTESLYTREQQEHLYEQIKNNINPNIIRVQTKLDISTEKVENIAISVNIESGLEPLRKIIFDGGVIDVRGRNLEHHHHHH” as the sequence, how does the “soluble on expression in E. coli” value read?
Answer: soluble

Question: Which “soluble on expression in E. coli” value does the source give for “MDPKKADIIRLEALPQDLLGGIVAKVGATTAEDFHNCILVCKELGASANDKHVFKTLNLALLVKKPLSGTQTPSYYENMS” here?
Answer: soluble

Question: With “MGSDKIHHHHHHMSKPDRVVLIGVAGDSGCGKSTFLNRLADLFGTELMTVICLDDYHSLDRKGRKEAGVTALDPRANNFDLMYEQVKALKNGETIMKPIYNHETGLIDPPEKIEPNRIIVIEGLHPLYDERVRELLDFSVYLDIDDEVKIAWKIQRDMAERGHSYEDVLASIEARRPDFKAYIEPQRGHADIVIRVMPTQLIPNDTERKVLRVQLIQREGRDGFEPAYLFDEGSTIQWTPCGRKLTCSYPGIRLAYGPDTYYGHEVSVLEVDGQFENLEEMIYVEGHLSKTDTQYYGELTHLLLQHKDYPGSNNGTGLFQVLTGLKMRAAYERLTSQAAPVAASV” as the sequence, how does the “soluble on expression in E. coli” value read?
Answer: not soluble

Question: With “GPGSMDTRDRPLPRTPPLQTPRGSCHPPLLTVEEDVRRAGQVRQVRPTKELNCRHQTSLQLYREHRRCEAEGFKERRVILRVWVLHGQHAPGGHTRPHPTGAQDRDAQAPQLRRAVESRLSPTHYEAEGDGRLNRRHHTTTACSHQRPHILRHIRRGNKDVAP” as the sequence, how does the “soluble on expression in E. coli” value read?
Answer: not soluble

Question: With “MGSDKIHHHHHHMSDIQLSLLNDFQRGFPLTSTPFDAIAQRLGLDVEALLDTLRRLTREGVVSRVGAVFRPNRVGVSTLAAMAVPEGRLDEVARLVSARPEVNHNYEREHRFNLWFVAAAANPAQLEQALHDIEQQTGLAAMRLPMVQDYHIDLGFDLRRSVGLTDRHQQKAAPSRALELDALDYVLVEAIQEGLPLVARPYAEVAAFIGTSEADVLIRLGRLLDHGVIKRLGIVVRHHELGFRANAMVVWNIPDEQVDEFGRCVGASGLVNLCYQRPRRLPEWPYNLFCMIHGKDRDAVLEHLDHLRDQCGLTDFPCEVLFSKRRFKQTGARYLAAQPKAAAEAT” as the sequence, how does the “soluble on expression in E. coli” value read?
Answer: not soluble

Question: For “MGHHHHHHSHMVTHSKFPAAGMSRPLDTSLRLKTFSSKSEYQLVVNAVRKLQESGFYWSAVTGGEANLLLSAEPAGTFLIRDSSDQRHFFALSVKTQSGTKNLRIQCEGGSFSLQSDPRSTQPVPRFDCVLKLVYHYMPPPGAPSFPSPPTEPSSEVPEQPSAQPLPGSPPRRAYYIYSGGEKIPLVLSRPLSSNVATLQHLCRKTVNGHLDSYEKVTQLPGPIREFLDQYDAPL”, which “soluble on expression in E. coli” value is on record?
Answer: not soluble

Question: For “MEDKVDVLIIGGGASGVTSGIQSARMGANTLILEESTWLGGMLTSAGVSAVDGNYRLPAGLWGEFKNRLSDYYGGLDSLKTGWVSNVLFEPSVGNKILHEMVAAENNLKVWKQACLEEVKRTGDEWVAKVKVEGQGVKTVRAKVMIDATELGDVAKMCGLEHHHHHH”, which “soluble on expression in E. coli” value is on record?
Answer: not soluble

Question: Which “soluble on expression in E. coli” value does the source give for “MTTFRQHRWQSFLQGYEQRARILISCPDRPGIVAAVTSFLYEQGANIVESSQYSTDPEGGTFFLRLEFDCPNIAERKEEIEAAFAPIAAEFEMRWQLRLHNDIRRIAIFVSKAEHCLLELLWQWQAGELIADIALVISNHPDLRETVESFGIPYVHIPVTKETKADAEAEQIRLLRDYQIDTIVLARYMQILSPAFVAEFSGRIINIHHSFLPAFIGARPYERAYERGVKLIGATSHYVTDDLDEGPIIEQDVARVDHRHHPDDLKRIGRLIEKTVLARALRWHLEDRVIIHGNKTIVFY” here?
Answer: soluble

Question: For “GSTVPYTITVNGTSQNILSNLTFNKNQNISYKDLEGKVKSVLESNRGITDVDLRLSKQAKYTVNFKNGTKKVIDLKSGIYTANLINSSDIKSININID”, which “soluble on expression in E. coli” value is on record?
Answer: soluble

Question: For “MGSDKIHHHHHHMAHADIFNAIYTNKVWGNGSGEGSAEELTRDYRKFLHNFLRANHIRSVVDLGCGDWQFSRHMDWSGIEYCGIDVSSVVLETTRNFSAPNIRFQEMNGIEGELPSADLLICKDVVQHWSNTDILQLFPKLPRFRLALITNAFHPAITENQDIVTGDFRPLNLLAKPFDIKGSYIYCFMAGEPKGVFLWSRGD”, which “soluble on expression in E. coli” value is on record?
Answer: not soluble

Question: For “MKQKNENAPRPGGAGRKPKADPAVFRYSISFNAIDHARFLALFDQSGMRTKAHFITARIFGEPFKVIKIDKAAVEYYTRLTALYSQYRGIAVNYNQVVKALNTNFSEKKALAFLYKLEKATIELADLNRQIIELTREFETRWLQR”, which “soluble on expression in E. coli” value is on record?
Answer: not soluble
